This passage reports phage binding ratio results from US20140128569A1 (PANASONIC, published 2014).

This assay has as its target T1, polypeptide consisting of the amino acid sequence represented by SEQ ID NO: 01, contained in troponin I … (human).
T1 peptide: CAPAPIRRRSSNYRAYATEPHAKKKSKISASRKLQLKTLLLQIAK
Description: phage ELISA; average absorbance relative to example 2-1 (no heat); told of the conditions <=70 C and <=5 min, <=60 C and <=10 min, <=50 C and <=20 min, <=37 C and <=60 min. On the procedure:
Pursuant to the step (a-8), the ELISA plate was prepared.
A phage binding ratio was calculated from Table 10 on the basis of the following formula (I): […]
Background: ELISA stands for enzyme-linked immunosorbent assay.

B1: A2 antibody-displayed phage (scFv)
scFv: DVVLTQSPLTLSVTIGQPASISCKSSQSLLDSDGKTYLNWLLQRPGQSPKRLIYLVSKLDSGVPDRFTGSGSGTDFTLKISRVEAEDLGVYYCWQGTHFPLTFGAGTKLEIKRGGGGSGGGGSGGGGSQLQLQQSGAELVRSGASVKLSCTASGFNIKDYYMNWVKQRPEQGLEWIGWIDPANGDTAYAPRFQVKATMTADKSSNTAYLQLSSLTSEDTAVYYCNADLPMDQWGQGTSVTVSS
notes: 67, 68, 69 its parts; they must be translated; also called A2 antibody fragment; A2 scFv antibody fragment
Consider B1, for which the phage binding ratio was determined as 40%.
